Patent US20240294593A1 (Genentech, published 2024)

Columns and labels:
human PD-1-His [1] = molecular target: T1, human PD-1-His (human, UniProt Q15116 25-167, limits assumed); test: Octet (BLI), bivalent IgG1 mAb; legend calls the constant apparent (KDapp)
T1 construct: Antigen of the Octet assays; not shown: His tag

human PD-1-His [2] = molecular target: T1, human PD-1-His; test: Octet (BLI), bivalent IgG1 mAb
human PD-1-His [3] = molecular target: T1, human PD-1-His; test: Octet

T1 sequence (Q15116 25-167 limits assumed): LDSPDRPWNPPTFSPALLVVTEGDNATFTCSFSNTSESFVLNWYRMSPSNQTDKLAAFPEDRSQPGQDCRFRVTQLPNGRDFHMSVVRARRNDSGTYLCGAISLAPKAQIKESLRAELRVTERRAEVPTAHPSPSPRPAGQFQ

Binder | Kd (human PD-1-His [1]) [nM] | koff (human PD-1-His [2]) [s⁻¹] | kon (human PD-1-His [2]) [M⁻¹ s⁻¹] | Kd (human PD-1-His [3]) [nM] | koff (human PD-1-His [3]) [s⁻¹] | kon (human PD-1-His [3]) [M⁻¹ s⁻¹]
H1.187_L1.140 (XENP32433) (antibody, V domains shown, VH-F34L/S55G/R109W/W112F, VL-N31H/K36Y/S99T (Xencor #); Kabat positions VH-32/52A/97/100, VL-27D/30/93; also called mAb C[PD-1]_H1.187_L1.140) VH: EVQLVESGGGLVQPGGSLRLSCAASGFTFSSLGMHWVRQAPGKGLEWVSYISGGSSIIYYADSVKGRFTISRDNAKNSLYLQMNSLRAEDTAVYYCARGGWLVFSPDYWGQGTLVTVSS VL: DIVMTQSPDSLAVSLGERATINCKSSQSLLHSGNQYNYLTWYQQKPGQPPKLLIYWASTRESGVPDRFTGSGSGTDFTLTISSLQAEDVAVYYCQNDYTYPFTFGSGTKLEIKR | 1.03 | 0.000198 | 193000 |  |  | 
H1_L1.133 (antibody, V domains shown, also called VL-Y100D; Kabat 94) VH: EVQLVESGGGLVQPGGSLRLSCAASGFTFSSFGMHWVRQAPGKGLEWVSYISSGSSIIYYADSVKGRFTISRDNAKNSLYLQMNSLRAEDTAVYYCARGGRLVWSPDYWGQGTLVTVSS VL: DIVMTQSPDSLAVSLGERATINCKSSQSLLNSGNQKNYLTWYQQKPGQPPKLLIYWASTRESGVPDRFTGSGSGTDFTLTISSLQAEDVAVYYCQNDYSDPFTFGSGTKLEIKR |  |  |  | 405 | 0.0264 | 65100
H1_L1.128 (antibody, V domains shown, also called VL-Y100L; Kabat 94) VH: EVQLVESGGGLVQPGGSLRLSCAASGFTFSSFGMHWVRQAPGKGLEWVSYISSGSSIIYYADSVKGRFTISRDNAKNSLYLQMNSLRAEDTAVYYCARGGRLVWSPDYWGQGTLVTVSS VL: DIVMTQSPDSLAVSLGERATINCKSSQSLLNSGNQKNYLTWYQQKPGQPPKLLIYWASTRESGVPDRFTGSGSGTDFTLTISSLQAEDVAVYYCQNDYSLPFTFGSGTKLEIKR |  |  |  | 186 | 0.0911 | 490000
mAb C[PD1]_H1.177_L1.140 (bivalent IgG1) (antibody, V domains shown, Bivalent IgG1 format with E233P/L234V/L235A/G236_/S267K; copies: 2 + 2) VH: EVQLVESGGGLVQPGGSLRLSCAASGFTFSSLGMHWVRQAPGKGLEWVSYISGGSSIIYYADSVKGRFTISRDNAKNSLYLQMNSLRAEDTAVYYCARGGRLVFSPDYWGQGTLVTVSS VL: DIVMTQSPDSLAVSLGERATINCKSSQSLLHSGNQYNYLTWYQQKPGQPPKLLIYWASTRESGVPDRFTGSGSGTDFTLTISSLQAEDVAVYYCQNDYTYPFTFGSGTKLEIKR | 1.6 | 0.00022 | 138000 |  |  | 

Next, values leading:

Kd (human PD-1-His [1]) [nM] | koff (human PD-1-His [2]) [s⁻¹] | kon (human PD-1-His [2]) [M⁻¹ s⁻¹] | Kd (human PD-1-His [3]) [nM] | koff (human PD-1-His [3]) [s⁻¹] | kon (human PD-1-His [3]) [M⁻¹ s⁻¹] | Binder
0.952 | 0.000178 | 187000 |  |  |  | H1.183_L1.140 (XENP32429) (antibody, V domains shown, VH-F34L/S55G/R109V/W112F, VL-N31H/K36Y/S99T (Xencor #); Kabat positions VH-32/52A/97/100, VL-27D/30/93; also called mAb C[PD-1]_H1.183_L1.140; copies: 2 + 2) VH: EVQLVESGGGLVQPGGSLRLSCAASGFTFSSLGMHWVRQAPGKGLEWVSYISGGSSIIYYADSVKGRFTISRDNAKNSLYLQMNSLRAEDTAVYYCARGGVLVFSPDYWGQGTLVTVSS VL: DIVMTQSPDSLAVSLGERATINCKSSQSLLHSGNQYNYLTWYQQKPGQPPKLLIYWASTRESGVPDRFTGSGSGTDFTLTISSLQAEDVAVYYCQNDYTYPFTFGSGTKLEIKR
0.945 | 0.000179 | 189000 |  |  |  | H1.186_L1.140 (XENP32432) (antibody, V domains shown, VH-F34L/S55G/R109A/W112F, VL-N31H/K36Y/S99T (Xencor #); Kabat positions VH-32/52A/97/100, VL-27D/30/93; also called mAb C[PD-1]_H1.186_L1.140; copies: 2 + 2) VH: EVQLVESGGGLVQPGGSLRLSCAASGFTFSSLGMHWVRQAPGKGLEWVSYISGGSSIIYYADSVKGRFTISRDNAKNSLYLQMNSLRAEDTAVYYCARGGALVFSPDYWGQGTLVTVSS VL: DIVMTQSPDSLAVSLGERATINCKSSQSLLHSGNQYNYLTWYQQKPGQPPKLLIYWASTRESGVPDRFTGSGSGTDFTLTISSLQAEDVAVYYCQNDYTYPFTFGSGTKLEIKR
0.905 | 0.000173 | 191000 |  |  |  | H1.181_L1.140 (XENP32427) (antibody, V domains shown, VH-F34L/S55G/R109Q/W112F, VL-N31H/K36Y/S99T (Xencor #); Kabat positions VH-32/52A/97/100, VL-27D/30/93; also called mAb C[PD-1]_H1.181_L1.140; copies: 2 + 2) VH: EVQLVESGGGLVQPGGSLRLSCAASGFTFSSLGMHWVRQAPGKGLEWVSYISGGSSIIYYADSVKGRFTISRDNAKNSLYLQMNSLRAEDTAVYYCARGGQLVFSPDYWGQGTLVTVSS VL: DIVMTQSPDSLAVSLGERATINCKSSQSLLHSGNQYNYLTWYQQKPGQPPKLLIYWASTRESGVPDRFTGSGSGTDFTLTISSLQAEDVAVYYCQNDYTYPFTFGSGTKLEIKR
0.864 | 0.00017 | 197000 |  |  |  | H1.179_L1.140 (XENP32425) (antibody, V domains shown, VH-F34L/S55G/R109Y/W112F, VL-N31H/K36Y/S99T (Xencor #); Kabat positions VH-32/52A/97/100, VL-27D/30/93; also called mAb C[PD-1]_H1.179_L1.140; copies: 2 + 2) VH: EVQLVESGGGLVQPGGSLRLSCAASGFTFSSLGMHWVRQAPGKGLEWVSYISGGSSIIYYADSVKGRFTISRDNAKNSLYLQMNSLRAEDTAVYYCARGGYLVFSPDYWGQGTLVTVSS VL: DIVMTQSPDSLAVSLGERATINCKSSQSLLHSGNQYNYLTWYQQKPGQPPKLLIYWASTRESGVPDRFTGSGSGTDFTLTISSLQAEDVAVYYCQNDYTYPFTFGSGTKLEIKR
0.601 | 0.000154 | 256000 |  |  |  | mAb C[PD1]_H1.180_L1.140 (bivalent IgG1) (antibody, V domains shown, Bivalent IgG1 format with E233P/L234V/L235A/G236_/S267K; copies: 2 + 2) VH: EVQLVESGGGLVQPGGSLRLSCAASGFTFSSLGMHWVRQAPGKGLEWVSYISGGSSIIYYADSVKGRFTISRDNAKNSLYLQMNSLRAEDTAVYYCARGGELVFSPDYWGQGTLVTVSS VL: DIVMTQSPDSLAVSLGERATINCKSSQSLLHSGNQYNYLTWYQQKPGQPPKLLIYWASTRESGVPDRFTGSGSGTDFTLTISSLQAEDVAVYYCQNDYTYPFTFGSGTKLEIKR
